Laboratory results taken from IntAct's records for PubMed 11018022.

B1: Insulin receptor substrate 1 (Rattus norvegicus (Rat)), P35570 (parent)
chain: MASPPDTDGFSDVRKVGYLRKPKSMHKRFFVLRAASEAGGPARLEYYENEKKWRHKSSAPKRSIPLESCFNINKRADSKNKHLVALYTRDEHFAIAADSEAEQDSWYQALLQLHNRAKAHHDGAGGGCGGSCSGSSGVGEAGEDLSYDTGPGPAFKEVWQVILKPKGLGQTKNLIGIYRLCLTSKTISFVKLNSEAAAVVLQLMNIRRCGHSENFFFIEVGRSAVTGPGEFWMQVDDSVVAQNMHETILEAMRAMSDEFRPRTKSQSSSSCSNPISVPLRRHHLNNPPPSQVGLTRRSRTESITATSPASMVGGKPGSFRVRASSDGEGTMSRPASVDGSPVSPSTNRTHAHRHRGSSRLHPPLNHSRSIPMPSSRCSPSATSPVSLSSSSTSGHGSTSDCLFPRRSSASVSGSPSDGGFISSDEYGSSPCDFRSSFRSVTPDSLGHTPPARGEEELSNYICMGGKGASTLTAPNGHYILSRGGNGHRYIPGATMGTSPALTGDEAAGAADLDNRFRKRTHSAGTSPTISHQKTPSQSSVVSIEEYTEMMPAAYPPGGGSGGRLPGYRHSAFVPTHSYPEEGLEMHHLERRGGHHRPDSSNLHTDDGYMPMSPGVAPVPSNRKGNGDYMPMSPKSVSAPQQIINPIRRHPQRVDPNGYMMMSPSGSCSPDIGGGSCSSSSISAAPSGSSYGKPWTNGVGGHHTHALPHAKPPVESGGGKLLPCTGDYMNMSPVGDSNTSSPSECYYGPEDPQHKPVLSYYSLPRSFKHTQRPGEPEEGARHQHLRLSSSSGRLRYTATAEDSSSSTSSDSLGGGYCGARPESSVTHPHHHALQPHLPRKVDTAAQTNSRLARPTRLSLGDPKASTLPRVREQQQQQQQQQQSSLHPPEPKSPGEYVNIEFGSGQPGYLAGPATSRSSPSVRCLPQLHPAPREETGSEEYMNMDLGPGRRATWQESGGVELGRVGPAPPGAASICRPTRSVPNSRGDYMTMQIGCPRQSYVDTSPVAPVSYADMRTGIAAEKVSLPRTTGAAPPPSSTASASASVTPQGAAEQAAHSSLLGGPQGPGGMSAFTRVNLSPNHNQSAKVIRADTQGCRRRHSSETFSAPTRAANTVSFGAGAAGGGSGGGSEDVKRHSSASFENVWLRPGDLGGASKESAPGCGAAGGLEKSLNYIDLDLVKDVKQHPQDCPSQQQSLPPPPPHQPLGSNEGSSPRRSSEDLSTYASINFQKQPEDRQ

Variants of: B1
Conditions: with phip_mouse Phip

Variant	effect of a mutation on the interaction
W106A	disrupting interaction
